Two molecules from patent US20190389941A1 (GLIKNIK, published 2019) can be followed below.

The assay has as its target T1, G990 (Homo sapiens (Human), UniProt P0DOX5 218-449 = IgG part).
T1 construct: GL-2045 background (IgG1 hinge-CH2-CH3-IgG2 hinge) with G236R; homodimeric unit that multimerizes; also called stradomer G990
The assay is described as follows: BLI (ForteBio Octet), His-tagged receptor on sensor tip; summary grade. On the procedure: Binding of general stradomers or parent stradomer GL-2045 to FcγRI, FcγRIIb, FcγRIIIa, FcγRIIa, was assessed. RU values of dissociation were measured by biolayer interferometry using a ForteBio Octet instrument. His-tagged receptor proteins were bound to the sensor tip in 1X kinetic analysis buffer from ForteBio after which the on rate of the receptor/protein was measured by transferring the sensor tip to a 1x kinetics buffer containing the purified stradomer of choice. Off rate was measured by transferring the sensor tip to a 1X kinetics buffer, and RU value was calculated from the measured maximum binding using the ForteBio software. Biolayer interferometry detects the binding between a ligand immobilized on the biosensor tip surface and an analyte in solution. When binding occurs it produces an increase in optical thickness at the biosensor tip, which results in a wavelength shift (detected as a response unit of “RU”). The maximum binding level (RU max) is the maximum possible amount of sample binding at equilibrium that saturates the amount of ligand on the sensor surface. The RU 300 is the residual sample binding after 300 seconds of dissociation and is useful to characterize the rate of dissociation of the test article from the test ligand.
A general note: Biolayer interferometry detects binding as a change in optical thickness at a sensor tip.

B1: FcγRIIa (receptor, UniProt P12318 34-217, looked up)
chain: QAAAPPKAVLKLEPPWINVLQEDSVTLTCQGARSPESDSIQWFHNGNLIPTHTQPSYRFKANNNDSGEYTCQTGQTSLSDPVHLTVLSEWLVLQTPHLEFQEGETIMLRCHSWKDKPLVKVTFFQNGKSQKFSHLDPTFSIPQANHSHSGDYHCTGNIGYTLFSSKPVTITVQVPSMGSSSPMG
notes: also called His-tagged receptor protein; CD32; not shown: His tag
For the molecule B1, the binding result was “no binding”.

B2: FcγRIIb (receptor, UniProt P31994 43-217, looked up)
chain: TPAAPPKAVLKLEPQWINVLQEDSVTLTCRGTHSPESDSIQWFHNGNLIPTHTQPSYRFKANNNDSGEYTCQTGQTSLSDPVHLTVLSEWLVLQTPHLEFQEGETIVLRCHSWKDKPLVKVTFFQNGKSKKFSRSDPNFSIPQANHSHSGDYHCTGNIGYTLYSSKPVTITVQAP
notes: as for B1
With B2, the binding result is “no binding”.
